Results as given in publication PMC8958347.

Tests used:
[1] = target: Dil labelled LDL (low-density lipoprotein); experiment: MST; purified LDLR^Q722* or wild-type LDLR with Dil labelled LDL; Kd model; three replicates
[2] = target: Dil labelled LDL (low-density lipoprotein)
[3] = target: Dil labelled LDL (low-density lipoprotein); experiment: MST; sEV^Ad-LDLR-Q722* with Dil-LDL; Kd model; pH 5.5
[4] = target: Dil labelled LDL (low-density lipoprotein); experiment: MST; sEV^Ad-LDLR-Q722* with Dil-LDL; Kd model; pH 7.4
[5] = target: Dil labelled LDL (low-density lipoprotein); experiment: MST; sEV (isolated from supernatant of infected HepG2) with Dil-LDL; Kd model; pH not stated

Substance: wild-type LDLR (N-terminal residues 1-788) (from UniProt P01130 22-788) (domain or fragment)
- Kd [1]: 7.16 µM

Substance: LDLR^Q722* attached to the surface of small extracellular vesicles (sEV^Ad-LDLR-Q722*) (from UniProt P01130 22-722) (domain or fragment)
- uptake of Dil-LDL by Ldlr–/– primary hepatocytes (confocal fluorescence intensity), sEV^Ad-LDLR-Q722* group against the sEV^Ad-LDLR-WT group [2]: 3.13 fold
- uptake of Dil-LDL by Ldlr–/– primary hepatocytes (confocal fluorescence intensity), sEV^Ad-LDLR-Q722* group against the sEV^Ad-control group [2]: 2.68 fold
- Kd [3]: 0.013 µM
- Kd [4]: 4.98 µM
- Kd [5]: 0.012 µM

Substance: LDLR^Q722* (truncated soluble LDLR, 1-722 amino acids), purified (from UniProt P01130 22-722) (domain or fragment)
- Kd [1]: 7.89 µM
